Data from patent US20110182943A1, “METHODS OF IMMUNE OR HEMATOLOGICAL ENHANCEMENT, INHIBITING TUMOUR FORMATION OR GROWTH, AND TREATING OR PREVENTING CANCER, CANCER SYMPTOMS, OR THE SYMPTOMS OF CANCER TREATMENTS” (FONTERRA CO-OPERATIVE GROUP LIMITED, priority 2007, published 2011).

Tests used:
EL-4 target cells = test: Anti-tumour cytolytic activity of splenocytes from diet-fed mice; assay type: in vivo; details: day 56
Method: Splenocytes were harvested following tumour cell injection on days specified. They were incubated at 37° C. with EL-4 target cells in graded E:T ratios in 96-well roundbottom plates. After a 4-hour incubation, 50 μl of supernatant was collected, and lysis was measured using the Cyto Tox 96 Assay Kit (Promega, Madison, Wis., USA). Background controls for non-specific target and effector cell lysis were included. After background subtraction, percentage of cell lysis was calculated using the formula: 100×(experimental spontaneous effector-spontaneous target/maximum target-spontaneous target).
Splenocytes were harvested from the mice described in Example 4 at day 56 and tested for their cytolytic activity against EL-4 target cells. […] The anti-tumour cytolytic activity was further increased by 86% (P<0.001) for mice fed the combination of Lf+ and milk fat compared to controls.

EL-4 tumours [1] = test: Tumour vascularity and blood flow (CD31, CD105, DiO7) in EL-4 tumours; assay type: in vivo, mice; details: day 56
Method: To determine tumour vascularity, 10-μm frozen tumour sections were fixed with acetone, rinsed with PBS, blocked with 2% BSA for 2 hr, and incubated overnight with the anti-CD31 antibody MEC13.3, or an anti-CD105 mAb. They were subsequently incubated for 30 min with secondary antibodies using the VECTASTAIN Universal Quick kit (Vector Laboratories, Burlingame, Calif., USA); and developed with Sigma FAST DAB (3,3′-diaminobenzidine tetrahydrochloride) and CoCl2 enhancer tablets (Sigma), and counterstained with hematoxylin. Stained blood vessels were counted in five or six blindly chosen random fields (0.155 mm^2) at ×40 magnification, and the mean of the highest three counts was calculated. To visualize blood vessels open to flow, DiO7 (Molecular Probes, Eugene, Oreg.) was injected into the tail vein at a concentration of 1.0 mg/Kg one minute prior to collecting tissues, as described previously (Ding et al., 2001). The concentric circles method was also used to assess vascularity.
The effects of Lf+ and milk fat on tumour blood flow and vascularity were analyzed by staining of tumour sections prepared as described in Example 5 with anti-CD31 and anti-CD105 mAbs, and by perfusion of DiO7, and respectively. […] Stained blood vessels were counted from six mice in six blindly chosen random fields.

EL-4 tumours [2] = test: Tumour apoptosis (TUNEL / annexin-V-fluos) in EL-4 tumour sections; assay type: in vivo, mice; details: day 56
Method: Tumours were excised and immediately frozen in dry ice, and stored at −70° C. for later in situ detection of apoptotic cells in tumours. Frozen serial sections of 6-μm thickness were fixed with paraformaldehyde solution (4% in PBS, pH 7.4), and permeabilized with a solution containing 0.1% Triton X-100 and 0.1% sodium citrate. They were incubated with 20 μl TUNEL reagent (In Situ apoptosis detection kit from Boehringer Mannheim, Germany) for 60 min at 37° C., and examined by fluorescence microscopy. Adjacent sections were counter-stained with haematoxylin to count the total number of cells, or the number of apoptotic cells in ten randomly selected fields (magnification of ×40). The apototic index (AI) was calculated as the number of apoptotic cells×100/total number of nucleated cells. For detection of apoptotic cells in vitro, the numbers of apoptotic and necrotic tumour cells were measured by staining with annexin-V-fluos, TUNEL, and trypan blue. For measurement of gut apoptosis, jejunal sections were stained by the TUNEL method using a DeadEnd™ Fluorometric TUNEL System (Promega, Madison, Wis., USA). Apoptotic cells in 10 randomly selected cypts were counted, and the data expressed as apoptotic bodies per crypt. […]

EL-4 tumour cells = test: EL-4 lymphoma tumour growth in mice fed experimental diets; assay type: in vivo, C57BL/6 mice
Description: Mice were challenged subcutaneously with 2×10^5 EL-4 tumour cells two weeks after being placed on the diets. Tumour size as measured by two perpendicular diameters (in centimetres) was monitored until day 91, or until tumours reached 1 cm in diameter. Each point represents the mean tumour size with 95% confidence intervals for either 6 mice, or the number of mice indicated.
Groups of six mice were fed a control AIN-93G diet, diets containing either 28 g Lf+ or 120 g of milk fat (AMF) per 2.4 Kg of diet, or a diet containing a combination of both Lf and milk fat. Day 0 refers to the day the mice were placed on their diets. After 2 weeks on the diets, 2×10^5 EL-4 cells were injected into the flanks of mice. Tumour size as measured by two perpendicular diameters (in centimetres) was monitored until day 56. Each point represents the mean tumour size with 95% confidence intervals for either 6 mice, or the number of mice indicated.
Mice were challenged subcutaneously with EL-4 tumour cells two weeks after being placed on the diets. Tumour size was again measured by two perpendicular diameters (in centimetres).

B1: Lf+: Iron-saturated bovine lactoferrin extract (100% saturated) prepared from natural bLf (protein, UniProt P24627 20-708, looked up)
Lactotransferrin: APRKNVRWCTISQPEWFKCRRWQWRMKKLGAPSITCVRRAFALECIRAIAEKKADAVTLDGGMVFEAGRDPYKLRPVAAEIYGTKESPQTHYYAVAVVKKGSNFQLDQLQGRKSCHTGLGRSAGWIIPMGILRPYLSWTESLEPLQGAVAKFFSASCVPCIDRQAYPNLCQLCKGEGENQCACSSREPYFGYSGAFKCLQDGAGDVAFVKETTVFENLPEKADRDQYELLCLNNSRAPVDAFKECHLAQVPSHAVVARSVDGKEDLIWKLLSKAQEKFGKNKSRSFQLFGSPPGQRDLLFKDSALGFLRIPSKVDSALYLGSRYLTTLKNLRETAEEVKARYTRVVWCAVGPEEQKKCQQWSQQSGQNVTCATASTTDDCIVLVLKGEADALNLDGGYIYTAGKCGLVPVLAENRKSSKHSSLDCVLRPTEGYLAVAVVKKANEGLTWNSLKDKKSCHTAVDRTAGWNIPMGLIVNQTGSCAFDEFFSQSCAPGADPKSRLCALCAGDDQGLDKCVPNSKEKYYGYTGAFRCLAEDVGDVAFVKNDTVWENTNGESTADWAKNLNREDFRLLCLDGTRKPVTEAQSCHLAVAPNHAVVSRSDRAAHVKQVLLHQQALFGKNGKNCPDKFCLFKSETKNLLFNDNTECLAKLGGRPTYEEYLGTEYVTAIANLKKCSTSPLLEACAFLTR
modifications: iron-saturated
notes: Iron-saturated bovine lactoferrin extract (100% saturated) prepared from natural bLf
increase in anti-tumour cytolytic activity of splenocytes compared with control diet (EL-4 target cells): 66%
reduction in number of CD31+ vessels in tumours compared to control diet (EL-4 tumours [1]): 84%
reduction in tumour blood flow compared to control diet (EL-4 tumours [1]): 84%
increase in tumour apoptosis compared to control diet (EL-4 tumours [2]): 68%
mice that completely rejected the tumour challenge (EL-4 tumour cells; 28 g Lf+ and/or 120 g milk fat per 2.4 Kg of diet, groups of six mice, until day 56): One of 6
mice in which appearance of tumours was delayed by one week (EL-4 tumour cells; 28 g Lf+ or 120 g milk fat per 2.4 Kg of diet, groups of six mice): 5 of 6
effect on tumour growth / tumorigenesis in individual mice (EL-4 tumour cells; groups of five mice, per 2.4 Kg of diet: 28 g Lf+, 120 g Phospholac 600, 1.2 g sphingomyelin): growth of two tumours being delayed by two weeks, and one by at least one week
